Data on three molecules can be found in article PMC10755785 (The Journal of Biological Chemistry, 2023).

The target in assay [1] is σ^s (RpoS), His-tagged (Escherichia coli) (UniProt P13445). The experiment in a line: SEC. On the technique in general: Size exclusion chromatography separates by hydrodynamic size, large species first.
For assay [2] the target is unchanged. The experiment in a line: pull-down.
For a further assay, the target named is σ^s (RpoS), His-tagged (Escherichia coli, UniProt P13445 1-330). The experiment in a line: pull-down.
Chain of σ^s (RpoS), His-tagged (P13445 whole entry): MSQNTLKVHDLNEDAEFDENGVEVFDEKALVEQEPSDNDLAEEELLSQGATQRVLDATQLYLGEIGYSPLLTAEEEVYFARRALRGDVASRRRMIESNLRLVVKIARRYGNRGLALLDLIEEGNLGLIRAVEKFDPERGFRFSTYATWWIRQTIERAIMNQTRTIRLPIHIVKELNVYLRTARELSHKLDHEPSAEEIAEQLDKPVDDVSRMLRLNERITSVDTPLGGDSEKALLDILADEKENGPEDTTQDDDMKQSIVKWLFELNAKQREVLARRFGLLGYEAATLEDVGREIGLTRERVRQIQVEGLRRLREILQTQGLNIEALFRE

Chain of σ^s (RpoS), His-tagged (Escherichia coli) (P13445 whole entry): as above

In the case of “RssB∼P (RssB phosphorylated with acetyl phosphate) (from UniProt P0AEV1 1-337) (natural protein)”, the stoichiometry N – broadly, a count of units in the complex or per binding partner – in assay [1] was 1 σ^s:RssB.

With “RssB (wild type, full length) (from UniProt P0AEV1 1-337) (natural protein)”, the fold increase in pull-down efficiency with beryllofluoride against without in assay [2] stood at 5 fold.

B1: RssB^F129A;S131A (natural protein, Escherichia coli)
chain: MTQPLVGKQILIVEDEQVFRSLLDSWFSSLGATTVLAADGVDALELLGGFTPDLMICDIAMPRMNGLKLLEHIRNRGDQTPVLVISATENMADIAKALRLGVEDVLLKPVKDLNRLREMVFACLYPSMANARVEEEERLFRDWDAMVDNPAAAAKLLQELQPPVQQVISHCRVNYRQLVAADKPGLVLDIAALSENDLAFYCLDVTRAGHNGVLAALLLRALFNGLLQEQLAHQNQRLPELGALLKQVNHLLRQANLPGQFPLLVGYYHRELKNLILVSAGLNATLNTGEHQVQISNGVPLGTLGNAYLNQLSQRCDAWQCQIWGTGGRLRLMLSAE
On to B1, for which, in the assay with σ^s (RpoS), His-tagged, the “percent of WT binding” value was ~50 % of WT.
